According to US20240156864A1:

The substances below were run against CAR19.28ζ (assay: co-IP with anti-CAR19 Ab from CAR-T cell lysate, LC-MS/MS).
CAR19.28ζ, sequence (chain, as listed by the source limits assumed): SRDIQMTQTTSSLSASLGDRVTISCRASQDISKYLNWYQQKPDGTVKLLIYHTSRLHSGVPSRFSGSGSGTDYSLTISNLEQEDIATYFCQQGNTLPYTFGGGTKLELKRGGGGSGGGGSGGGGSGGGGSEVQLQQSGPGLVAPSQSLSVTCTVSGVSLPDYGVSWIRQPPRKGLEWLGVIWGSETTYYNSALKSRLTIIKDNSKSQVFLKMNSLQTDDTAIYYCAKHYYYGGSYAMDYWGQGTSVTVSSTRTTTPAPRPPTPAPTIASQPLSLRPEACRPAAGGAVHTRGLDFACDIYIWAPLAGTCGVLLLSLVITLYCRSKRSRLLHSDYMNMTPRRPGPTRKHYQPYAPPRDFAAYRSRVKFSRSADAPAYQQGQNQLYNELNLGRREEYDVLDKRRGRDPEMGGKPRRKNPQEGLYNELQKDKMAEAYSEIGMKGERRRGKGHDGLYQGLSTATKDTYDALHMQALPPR

| Substance | Area | Coverage [%] | Peptides (number identified) |
| --- | --- | --- | --- |
| THEMIS (from UniProt Q8N1K5 1-641) | 1.89e+07 | 3 | 2 |
| PIK3R1 (from UniProt P27986 2-724) | 2.3e+08 | 17 |  |
| LCK (from UniProt P06239 2-509) (enzyme) | 6.84e+08 | 32 |  |

Further lines, results first:

| Area | Coverage [%] | Peptides (number identified) | Substance |
| --- | --- | --- | --- |
| 1.59e+08 | 32 |  | CD8α (from UniProt P01732 22-235) (receptor) |
| 1.79e+08 | 13 |  | PIK3CD (from UniProt O00329 1-1044) (enzyme) |
